The values below come from paper PMC10631681, “The structural basis of mRNA recognition and binding by yeast pseudouridine synthase PUS1”.

Series [1] deals with T1, PUS1 wild type (His-tagged) (Saccharomyces cerevisiae, UniProt Q12211 1-544).
T1 sequence: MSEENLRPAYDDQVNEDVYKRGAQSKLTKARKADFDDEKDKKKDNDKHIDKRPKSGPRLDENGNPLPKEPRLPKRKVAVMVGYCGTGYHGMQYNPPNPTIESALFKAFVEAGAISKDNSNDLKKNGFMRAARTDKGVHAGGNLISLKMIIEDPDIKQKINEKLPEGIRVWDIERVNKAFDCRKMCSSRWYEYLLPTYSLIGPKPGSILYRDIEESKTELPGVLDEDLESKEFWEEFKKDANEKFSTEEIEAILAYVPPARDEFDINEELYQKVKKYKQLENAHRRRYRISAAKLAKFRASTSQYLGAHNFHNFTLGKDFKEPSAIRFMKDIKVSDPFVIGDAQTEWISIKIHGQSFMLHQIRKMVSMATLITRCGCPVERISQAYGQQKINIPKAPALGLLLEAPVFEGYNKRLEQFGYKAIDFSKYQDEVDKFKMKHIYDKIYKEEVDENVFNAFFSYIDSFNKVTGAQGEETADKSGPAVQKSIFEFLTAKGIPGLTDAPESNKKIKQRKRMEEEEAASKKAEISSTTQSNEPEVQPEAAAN
Put plainly: EMSA; 100 nM RNA, increasing protein; EMSA: 100 nM R263 with 100 nM-1 uM PUS1 in 100 ul under PUS1 activity assay conditions (buffer not in the material), 90 min, SYBR Gold stain; crystals: 7R9G 0.05 M ammonium sulfate, 0.05 M Bis-Tris pH 6.0, 26% pentaerythritol ethoxylate, 4 C; 7R9F 0.2 M K/Na tartrate, 18% PEG 3350, 25 C. Particulars: protein: recombinant; tags: N-terminal 6xHis; predicted short stem-loop; strand state in EMSA not determined.

A further series has as its target T2, PUS1 D134A (His-tagged) (Saccharomyces cerevisiae, UniProt Q12211 1-544, D134A).
T2 sequence: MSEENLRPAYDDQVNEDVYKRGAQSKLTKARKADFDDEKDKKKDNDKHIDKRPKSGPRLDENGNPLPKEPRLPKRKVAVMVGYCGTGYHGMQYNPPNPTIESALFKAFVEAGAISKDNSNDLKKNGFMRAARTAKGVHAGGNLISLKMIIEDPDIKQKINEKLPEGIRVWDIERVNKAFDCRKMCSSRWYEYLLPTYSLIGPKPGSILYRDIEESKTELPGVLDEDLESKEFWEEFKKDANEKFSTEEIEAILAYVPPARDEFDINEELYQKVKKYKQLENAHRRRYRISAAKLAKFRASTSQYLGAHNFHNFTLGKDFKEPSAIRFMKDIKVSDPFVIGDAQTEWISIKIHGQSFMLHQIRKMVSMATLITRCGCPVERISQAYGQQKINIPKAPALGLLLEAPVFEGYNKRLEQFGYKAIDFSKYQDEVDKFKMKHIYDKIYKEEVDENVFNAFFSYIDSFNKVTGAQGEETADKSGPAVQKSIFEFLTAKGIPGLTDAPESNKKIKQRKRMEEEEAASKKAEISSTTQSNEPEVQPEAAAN
The series is described as above. To be noted: protein: recombinant; tags: N-terminal 6xHis; predicted short stem-loop; strand state in EMSA not determined.

In series [2] the target is T3, PUS1 D134A (tagless, crystal) (Saccharomyces cerevisiae, UniProt Q12211 1-544, D134A).
T3 sequence: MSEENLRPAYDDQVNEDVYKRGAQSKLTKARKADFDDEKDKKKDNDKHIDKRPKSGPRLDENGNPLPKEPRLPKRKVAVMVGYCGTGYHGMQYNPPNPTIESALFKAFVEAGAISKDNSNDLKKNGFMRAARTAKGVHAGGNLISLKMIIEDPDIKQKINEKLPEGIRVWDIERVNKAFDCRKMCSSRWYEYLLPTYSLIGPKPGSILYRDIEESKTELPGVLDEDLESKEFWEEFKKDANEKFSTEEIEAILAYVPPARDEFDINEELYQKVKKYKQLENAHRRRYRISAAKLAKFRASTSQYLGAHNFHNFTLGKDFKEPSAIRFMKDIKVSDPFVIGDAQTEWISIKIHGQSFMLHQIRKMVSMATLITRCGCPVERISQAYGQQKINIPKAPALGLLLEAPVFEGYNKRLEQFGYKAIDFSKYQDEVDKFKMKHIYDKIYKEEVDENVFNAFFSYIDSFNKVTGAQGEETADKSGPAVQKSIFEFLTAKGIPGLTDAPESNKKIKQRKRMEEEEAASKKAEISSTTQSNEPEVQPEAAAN
Put plainly: X-ray crystallography (2.4 A); sulfate ion near RNA 5' end; EMSA: 100 nM R263 with 100 nM-1 uM PUS1 in 100 ul under PUS1 activity assay conditions (buffer not in the material), 90 min, SYBR Gold stain; crystals: 7R9G 0.05 M ammonium sulfate, 0.05 M Bis-Tris pH 6.0, 26% pentaerythritol ethoxylate, 4 C; 7R9F 0.2 M K/Na tartrate, 18% PEG 3350, 25 C. To be noted: protein: recombinant; tags: none; chain copies: 2; self-duplex of 2 copies; positions 2-10 paired with non-Watson-Crick pairs (two central G:G reverse Hoogsteen); 3' ends disordered.

Series [3] has as its target T4, PUS1 wild type (tagless, crystal) (Saccharomyces cerevisiae, UniProt Q12211 1-544).
T4 sequence: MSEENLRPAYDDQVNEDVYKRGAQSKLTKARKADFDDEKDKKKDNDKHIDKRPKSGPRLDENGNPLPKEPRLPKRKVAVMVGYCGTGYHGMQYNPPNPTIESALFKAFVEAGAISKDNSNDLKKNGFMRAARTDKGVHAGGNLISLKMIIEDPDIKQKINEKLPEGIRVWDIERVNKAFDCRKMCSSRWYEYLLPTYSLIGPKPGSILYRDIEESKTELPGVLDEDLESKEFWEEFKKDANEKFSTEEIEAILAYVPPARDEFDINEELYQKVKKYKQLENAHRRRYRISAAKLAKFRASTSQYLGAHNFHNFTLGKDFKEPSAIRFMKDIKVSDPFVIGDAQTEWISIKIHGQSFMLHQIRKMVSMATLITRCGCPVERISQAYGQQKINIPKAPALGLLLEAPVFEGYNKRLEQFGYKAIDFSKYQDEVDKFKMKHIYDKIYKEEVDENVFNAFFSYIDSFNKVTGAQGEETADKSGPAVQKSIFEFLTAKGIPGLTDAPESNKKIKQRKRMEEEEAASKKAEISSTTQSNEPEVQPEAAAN
Nature of the series: X-ray crystallography (2.9 A); EMSA: 100 nM R263 with 100 nM-1 uM PUS1 in 100 ul under PUS1 activity assay conditions (buffer not in the material), 90 min, SYBR Gold stain; crystals: 7R9G 0.05 M ammonium sulfate, 0.05 M Bis-Tris pH 6.0, 26% pentaerythritol ethoxylate, 4 C; 7R9F 0.2 M K/Na tartrate, 18% PEG 3350, 25 C. Particulars: protein: recombinant; tags: none; chain copies: 2; self-duplex of 2 copies, same duplex as R263.

AAAUCGGGAUUCCGGAUA (ssRNA) [R263 (EMSA)]: the binding result (in series [1]; in the series with PUS1 D134A (His-tagged)) was “binds” throughout.

B1: R263 duplex (crystal) (dsRNA)
RNA 1: AAAUCGGGAUUCCGGAUA
RNA 2: AAAUCGGGAUUCCGGAUA
Regarding B1, in series [2], the binding result is recorded as “binds”.

B2: R340 duplex (crystal) (dsRNA)
RNA 1: UAAUCGGGAUUCCGGAUA
RNA 2: UAAUCGGGAUUCCGGAUA
modifications: 5-fluorouracil at position 1 (written as U)
Regarding B2, the binding result in series [3] is listed as “binds”.
